Test results as given in US20030068806A1.

Key:
[1] = tested on: T1, p70-bac heparanase (human recombinant heparanase secreted by baculovirus infected insect cells)
T1 sequence: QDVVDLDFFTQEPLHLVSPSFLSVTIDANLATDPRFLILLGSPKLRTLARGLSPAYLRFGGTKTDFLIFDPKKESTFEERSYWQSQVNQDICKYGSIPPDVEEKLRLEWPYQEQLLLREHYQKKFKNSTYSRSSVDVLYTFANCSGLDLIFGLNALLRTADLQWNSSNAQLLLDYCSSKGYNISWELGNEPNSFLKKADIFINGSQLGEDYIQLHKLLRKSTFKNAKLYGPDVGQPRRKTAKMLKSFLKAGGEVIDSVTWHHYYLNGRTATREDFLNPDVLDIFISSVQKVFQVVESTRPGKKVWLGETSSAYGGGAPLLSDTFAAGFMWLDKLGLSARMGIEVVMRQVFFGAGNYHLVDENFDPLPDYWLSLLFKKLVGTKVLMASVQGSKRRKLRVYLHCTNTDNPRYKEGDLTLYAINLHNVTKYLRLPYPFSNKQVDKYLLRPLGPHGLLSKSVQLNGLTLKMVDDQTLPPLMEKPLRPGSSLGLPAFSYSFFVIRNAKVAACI

[2] = tested on: T2, p70 heparanase (about 70 kDa form of recombinant human heparanase expressed in mammalian cells)
T2 sequence: T1 sequence

Substance | heparanase activity (DMB assay) and Western blot before and after cathepsin L [1] | heparanase activity (DMB assay) after trypsin digestion [1] | heparanase activity (DMB assay) after trypsin digestion of CHO conditioned medium [2]
cathepsin L (Cat. No. 219412, Calbiochem) | demonstrates proteolytic processing of p70-bac heparanase by cathepsin L |  | 
trypsin (Cat. No. T-8642, Sigma USA) |  | reaching maximal activation of five-fold already at 15 units trypsin | recombinant heparanase processing and activation occurred when mild trypsin digestion was employed on a crude conditioned medium of CHO cells that secrete mammalian p70 heparanase (FIG. 27). Activation was dose dependent.
